Experiments:
[1] = target: T1, NGF (nerve growth factor) (human, UniProt P01138 P01138:122-241); experiment: cell_activity; neurite outgrowth, NGF 0.38 nM; SPR binding; TF-1 IC50 0.101 nM; details: tags: amine-coupled to CM5 chip in SPR; soluble in cell assays; chain copies: 2
Description: (§1) The neurite outgrowth inhibitory activity of the aptamer obtained in Example 1 was evaluated by using Neuroscreen-1 cell, which is a subclone of PC-12 cells.
(§2) The cells (2500 cells per well) were cultured for one day in an RPMI-1640 medium containing 2.5% horse serum and 1.25% fetal bovine serum in a 96 well flat-bottom plate coated with collagen type IV. […] Two days later, the cytoplasm and nuclei were stained using Cellomics Neurite Outgrowth Kit (manufactured by Thermo Scientific), and neurite length per cell was measured by Cellomics ArrayScan VTI (manufactured by Thermo Scientific). With the neurite length per cell obtained by the addition of NGF alone as inhibitory activity 0%, and that of the cell obtained by NGF free culture for 2 days as inhibitory activity 100%, the inhibitory activity of the aptamer was calculated from the neurite length per cell obtained by culturing with the addition of NGF and the aptamer in mixture. When the inhibitory activity was 0% or below, ‘0%’ is indicated.

[2] = target: T1, NGF (nerve growth factor); experiment: cell_activity; neurite outgrowth, NGF 0.38 nM; TF-1 IC50 0.074 nM; details: tags: human NGF; chain copies: 2
Description: as §1, §2

[3] = target: T1, NGF (nerve growth factor); experiment: cell_activity; neurite outgrowth, NGF 0.38 nM; TF-1 IC50 0.146 nM; details: tags: human NGF; chain copies: 2
Description: as §1, §2

[4] = target: T1, NGF (nerve growth factor); experiment: cell_activity; neurite outgrowth, NGF 1.1 nM; TF-1 IC50 <1.0 nM; details: tags: human NGF; chain copies: 2
Description: as §1, §2

[5] = target: T1, NGF (nerve growth factor); experiment: cell_activity; neurite outgrowth, NGF 0.38 nM; SPR binding; TF-1 IC50 0.120 nM; details: tags: amine-coupled to CM5 chip in SPR; soluble in cell assays; chain copies: 2
Description: as §1, §2

[6] = target: T1, NGF (nerve growth factor); experiment: cell_activity; neurite outgrowth, NGF 0.38 nM; TF-1 IC50 >0.3 nM; details: tags: human NGF; chain copies: 2
Description: as §1, §2

[7] = target: T1, NGF (nerve growth factor); experiment: cell_activity; neurite outgrowth, NGF 0.38 nM; TF-1 IC50 0.193 nM; details: tags: human NGF; chain copies: 2
Description: as §1, §2

[8] = target: T1, NGF (nerve growth factor); experiment: cell_activity; neurite outgrowth, NGF 0.38 nM; not tested by SPR; TF-1 IC50 0.051 nM; details: tags: amine-coupled to CM5 chip in SPR; soluble in cell assays; chain copies: 2
Description: as §1, §2

[9] = target: T1, NGF (nerve growth factor); experiment: cell_activity; neurite outgrowth, NGF 0.38 nM; not tested by SPR; TF-1 IC50 0.520 nM; details: tags: amine-coupled to CM5 chip in SPR; soluble in cell assays; chain copies: 2
Description: as §1, §2

[10] = target: T1, NGF (nerve growth factor); experiment: cell_activity; neurite outgrowth, NGF 0.38 nM; TF-1 IC50 0.218 nM; details: tags: human NGF; chain copies: 2
Description: as §1, §2

[11] = target: T1, NGF (nerve growth factor); experiment: cell_activity; neurite outgrowth, NGF 0.38 nM; TF-1 IC50 0.165 nM; details: tags: human NGF; chain copies: 2
Description: as §1, §2

[12] = target: T1, NGF (nerve growth factor); experiment: cell_activity; neurite outgrowth, NGF 0.38 nM; SPR binding; TF-1 IC50 0.119 nM; details: tags: amine-coupled to CM5 chip in SPR; soluble in cell assays; chain copies: 2
Description: as §1, §2

[13] = target: T1, NGF (nerve growth factor); experiment: cell_activity; neurite outgrowth, NGF 0.38 nM; TF-1 IC50 0.100 nM; details: tags: human NGF; chain copies: 2
Description: as §1, §2

[14] = target: T1, NGF (nerve growth factor); experiment: cell_activity; neurite outgrowth, NGF 0.38 nM; TF-1 IC50 0.176 nM; details: tags: human NGF; chain copies: 2
Description: as §1, §2

[15] = target: T1, NGF (nerve growth factor); experiment: cell_activity; neurite outgrowth, NGF 0.38 nM; TF-1 IC50 0.164 nM; details: tags: human NGF; chain copies: 2
Description: as §1, §2

T1 sequence (P01138 122-241, one chain of several): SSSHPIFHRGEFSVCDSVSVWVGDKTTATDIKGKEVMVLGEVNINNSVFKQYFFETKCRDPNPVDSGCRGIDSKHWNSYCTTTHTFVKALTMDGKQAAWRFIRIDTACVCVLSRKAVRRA

B1: aptamer ID 26(59) (ssRNA)
RNA: GGGAGACUCGCCAGAGUUGAAAGAAACCCAAAUAAGUGUGCGCAC
modifications: 2'-F pyrimidines except 2'-OMe at 7,8,9,11,12,17,18,33,37,45; 2'-OMe purines except 2'-F at g3 and 2'-OH at 19,20,26; 5' idT and 3' idT
IC50 [1]: 0.17 nM

B2: aptamer ID 26(47) (ssRNA)
RNA: GGGAGACUCGCCAGAGUUGAAAGAAACCCAAAUAAGUGUGCGCAC
modifications: 5' and 3' idT; 2'-OMe purines except ribo g3,g19,a20,a26; 2'-OMe c7,c11,c12,u17,u33,u37,c45; other pyrimidines 2'-F
IC50 [2]: 0.065 nM

B3: aptamer ID 26(45) (ssRNA)
RNA: GGGAGACUCGCCAGAGUUGAAAGAAACCCAAAUAAGUGUGCGCAC
modifications: 5' and 3' idT; 2'-OMe purines except ribo g3,g19,a20,a26; 2'-OMe c7,c9,c11,c12,u17,u33,c45; other pyrimidines 2'-F
IC50 [3]: 0.238 nM

GGGAGACUCGCCAGAGUUGAAAGAAACCCAAAUAAGUGUGCGCAC (ssRNA, 2'-F all pyrimidines) [aptamer ID 26]
IC50 [4]: < 1 nM

B4: aptamer ID 26(62) (ssRNA)
RNA: GGGAGACUCGCCAGAGUUGAAAGAAACCCAAAUAAGUGUGCGCAC
modifications: 2'-F pyrimidines except 2'-OMe at 7,8,9,11,12,17,18,33,37,45; 2'-OMe purines except 2'-OH at 3,19,20 and LNA at a26; 5' idT and 3' idT
IC50 [5]: 0.228 nM

B5: aptamer ID 26(40) (ssRNA)
RNA: GGGAGACUCGCCAGAGUUGAAAGAAACCCAAAUAAGUGUGCGCAC
modifications: as 26(19) (5' and 3' idT; 2'-F pyrimidines; 2'-OMe purines except ribo g3,g19,a20,a26) but c7 is 2'-OMe; PS between a26 and c27
IC50 [6]: 0.247 nM

B6: aptamer ID 26(32) (ssRNA)
RNA: GGGAGACUCGCCAGAGUUGAAAGAAACCCAAAUAAGUGUGCGCAC
modifications: as 26(19) (5' and 3' idT; 2'-F pyrimidines; 2'-OMe purines except ribo g3,g19,a20,a26) but c11 is 2'-OMe
IC50 [7]: 0.22 nM

B7: aptamer ID 26(64) (ssRNA)
RNA: GGGAGACUCGCCAGAGUUGAAAGAAACCCAAAUAAGUGUGCGCAC
modifications: 2'-F pyrimidines except 2'-OMe at 7,8,9,11,12,17,18,33,37,39,45; 2'-OMe purines except 2'-OH at 3,19,20,26; 5' PEG80TS4 (ssH linker); 3' idT
IC50 [8]: 0.102 nM

B8: aptamer ID 26(66) (ssRNA)
RNA: GGGAGACUCGCCAGAGUUGAAAGAAACCCAAAUAAGUGUGCGCAC
modifications: 2'-F pyrimidines; 2'-OMe purines except 2'-OH at 3,19,20,26; 5' PEG40GS2 (ssH linker); 3' idT
IC50 [9]: 0.252 nM

B9: aptamer ID 26(39) (ssRNA)
RNA: GGGAGACUCGCCAGAGUUGAAAGAAACCCAAAUAAGUGUGCGCAC
modifications: as 26(19) (5' and 3' idT; 2'-F pyrimidines; 2'-OMe purines except ribo g3,g19,a20,a26) but c7 is 2'-OMe; PS between a25 and a26
IC50 [10]: 0.168 nM

B10: aptamer ID 26(30) (mixed)
RNA: GGGAGACUCGCCAGAGUUGAAAGAAACCCAAAUAAGUGUGCGCAC
modifications: as 26(19) (5' and 3' idT; 2'-F pyrimidines; 2'-OMe purines except ribo g3,g19,a20,a26) but c45 is dC
IC50 [11]: 0.289 nM

B11: aptamer ID 26(63) (mixed)
RNA: GGGAGACUCGCCAGAGUUGAAAGAAACCCAAAUAAGUGUGCGCAC
modifications: 2'-F pyrimidines except 2'-OMe at 7,8,9,11,12,17,18,33,37,39,45 and dC at 27,29; 2'-OMe purines except 2'-OH at 3,19,20,26; 5' idT and 3' idT
IC50 [12]: 0.139 nM

B12: aptamer ID 26(46) (ssRNA)
RNA: GGGAGACUCGCCAGAGUUGAAAGAAACCCAAAUAAGUGUGCGCAC
modifications: 5' and 3' idT; 2'-OMe purines except ribo g3,g19,a20,a26; 2'-OMe c7,u8,c11,c12,u17,u33,c45; other pyrimidines 2'-F
IC50 [13]: 0.097 nM

B13: aptamer ID 26(33) (ssRNA)
RNA: GGGAGACUCGCCAGAGUUGAAAGAAACCCAAAUAAGUGUGCGCAC
modifications: as 26(19) (5' and 3' idT; 2'-F pyrimidines; 2'-OMe purines except ribo g3,g19,a20,a26) but c12 is 2'-OMe
IC50 [14]: 0.294 nM

B14: aptamer ID 26(35) (ssRNA)
RNA: GGGAGACUCGCCAGAGUUGAAAGAAACCCAAAUAAGUGUGCGCAC
modifications: as 26(19) (5' and 3' idT; 2'-F pyrimidines; 2'-OMe purines except ribo g3,g19,a20,a26) but c45 is 2'-OMe
IC50 [15]: 0.166 nM
